Tests used:
CXCR4-Rluc3 (human) = CXCR4-Rluc3 (human) (UniProt P61073)
SNAP-ACKR3 (human) [1] = molecular target: SNAP-ACKR3 (human) (UniProt P25106)
ACKR3-Rluc3 (human) [2] = molecular target: ACKR3-Rluc3 (human) (UniProt P25106)
ACKR3-Rluc3 (human) [3] = molecular target: ACKR3-Rluc3 (human) (UniProt P25106); remark: listed apart in the source
SNAP-ACKR3 (human) [4] = molecular target: SNAP-ACKR3 (human) (UniProt P25106); remark: listed apart in the source

UniProt P61073, sequence (P61073 whole entry): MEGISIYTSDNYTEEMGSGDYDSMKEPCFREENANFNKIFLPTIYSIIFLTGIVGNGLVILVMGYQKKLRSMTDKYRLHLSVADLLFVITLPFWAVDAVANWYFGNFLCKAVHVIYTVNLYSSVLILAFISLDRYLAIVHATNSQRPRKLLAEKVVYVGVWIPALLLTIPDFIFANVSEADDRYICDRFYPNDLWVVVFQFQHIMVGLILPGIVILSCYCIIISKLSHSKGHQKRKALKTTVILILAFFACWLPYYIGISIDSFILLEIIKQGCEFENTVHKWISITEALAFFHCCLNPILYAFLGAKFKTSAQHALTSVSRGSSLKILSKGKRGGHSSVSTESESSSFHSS

B1: 3xHA-RAMP3 (natural protein)
chain: RAGGCNETGMLERLPLCGKAFADMMGKVDVWKWCNLSEFIVYYESFTNCTEMEANVVGCYWPNPLAQGFITGIHRQFFSNCTVDRVHLEDPPDEVLIPLIVIPVVLTVAMAGLVVWRSKRTDTLL
reduction of the efficacy (Emax) of CXCL12-induced β-arrestin recruitment to CXCR4 by RAMP3 (BRET) (CXCR4-Rluc3 (human)): 18.5% | attenuation of the purely ligand-induced (CXCL12) internalization of ACKR3 by RAMP3 (DERET) (SNAP-ACKR3 (human) [1]): 50% | reduction of total ACKR3 internalization in response to CXCL12 (100 nM) on co-expression of HA-RAMP3, compared to ACKR3 alone (DERET, AUC 90 min) (SNAP-ACKR3 (human) [1]): 25% | decrease of the efficacy of CXCL11-induced β-arrestin recruitment to ACKR3 with HA-RAMP3 (BRET) (ACKR3-Rluc3 (human) [2]): 47% | decrease of the efficacy of TC14012-induced β-arrestin recruitment to ACKR3 with HA-RAMP3 (BRET) (ACKR3-Rluc3 (human) [2]): 39% | decrease of the efficacy of VUF11207-induced β-arrestin recruitment to ACKR3 with HA-RAMP3 (BRET) (ACKR3-Rluc3 (human) [2]): 30% | decrease of the CXCL12-induced Emax of β-arrestin recruitment to ACKR3 on co-expression with RAMP3 (BRET) (ACKR3-Rluc3 (human) [3]): 40% | ACKR3 remaining at the surface after CXCL12-induced internalization when HA-RAMP3 was present (∼53% without it; SNAP surface labelling) (SNAP-ACKR3 (human) [4]): 65%

— article PMC11760809
